We go through 78 sequences from the supplement of paper PMC7877785.

This data set in a line: self-splicing fitness, log relative to wild type (ln ratio); higher = more splicing; Tetrahymena group I intron in knt gene, E. coli kanamycin selection, DiMSum; sequences stand for … in CUCUCU…GGAGGGAAAAGUUAUCAGGCAUGCACCUGGUAGCUAGUCUUUAAACCAAUAGAUUGCAUCGGUUUAAAAGGCAAGACCGUCAAAUUGCGGGAAAGGGGUCAACAGCCGUUCAGUACCAAGUCUCAGGGGAAACUUUGAGAUGGCCUUGCAAAGGGUAUGGUAAUAAGCUGACGGACAUGGUCCUAACCACGCAGCCAAGUCCUAAGUCAACAGAUCUUCUGUUGAUAUGGAUGCAGUUCACAGACUAAAUGUCGGUCGGGGAAGAUGUAUUCUUCUCAUAAGAUAUAGUCGGACCUCUCCUUAAUGGGAGCUAGCGGAUGAAGUGAUGCAACACUGGAGCCGCUGGGAACUAAUUUGUAUGCGAAAGUAUAUUGAUUAGUUUUGGAGUACUCGUGGUCG
The method, boiled down: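 Colonies from six replicate transformations of E. coli BL21(DE3) were pooled and amplicon-sequenced on an Illumina HiSeq 2500. The library placed an intron with all eight P1ex-region nucleotides randomised inside the knt kanamycin-resistance gene on pET-22b(+), and cells grew overnight at 37°C or 30°C on LB agar with or without 25 μg/mL kanamycin (plus 100 μg/mL carbenicillin, 50 μM IPTG, 0.2% rhamnose). Fitness is the DiMSum error-weighted combination of wild-type-normalised replicate fold changes, kanamycin versus none.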

± gives the uncertainty stated by the source.

AGCGAGCAAUAUUACGUUUC: the “self-splicing fitness (ln)” value (30 °C) was -4.07 ± 0.21 and the “self-splicing fitness (ln)” value (37 °C) was -2.77 ± 0.18. Turning to GCGGAGCAAUAUUACGGUCC, the “self-splicing fitness (ln)” value (30 °C) is -2.54 ± 0.39. As for UAAUAGCAAUAUUACGAAUU, where the note is “37 °C”, the “self-splicing fitness (ln)” value is -2.58 ± 0.24.

With UGCUAGCAAUAUUACGACUA, the “self-splicing fitness (ln)” value reads like this: (30 °C) -0.649 ± 0.16; (37 °C) -0.872 ± 0.14.

On to UCCCAGCAAUAUUACGUUAU, for which the “self-splicing fitness (ln)” value (30 °C) is -4.35 ± 0.18 and the “self-splicing fitness (ln)” value (37 °C) is -2.47 ± 0.17.

Regarding GCGAAGCAAUAUUACGAAUG, the “self-splicing fitness (ln)” value reads like this: (30 °C) -1.95 ± 0.15; (37 °C) -0.756 ± 0.17. The like results for ACAUAGCAAUAUUACGACUC were, in that order, -0.657 ± 0.086 and -0.29 ± 0.13. The matching figures for UCCUAGCAAUAUUACGCGCG: -4.03 ± 0.29 and -2.45 ± 0.31. The matching figures for CUCAAGCAAUAUUACGCAGC: -4.03 ± 0.43 and -1.9 ± 0.44. For the sequence GCCAAGCAAUAUUACGAUUC, the “self-splicing fitness (ln)” value (30 °C) is -0.96 ± 0.062 and the “self-splicing fitness (ln)” value (37 °C) was -0.482 ± 0.082. The like results for CCCUAGCAAUAUUACGAUAA were, in that order, -4.04 ± 0.22 and -2.48 ± 0.22. GCCCAGCAAUAUUACGUACU: the “self-splicing fitness (ln)” value by setting is: (30 °C) -0.0223 ± 0.1; (37 °C) -0.765 ± 0.15. Consider CUAUAGCAAUAUUACGAUUG, for which the “self-splicing fitness (ln)” value was -0.58 ± 0.097 (30 °C) and 0.313 ± 0.13 (37 °C). With UUUGAGCAAUAUUACGAUAU, for the setting “37 °C”, the “self-splicing fitness (ln)” value was -0.926 ± 0.24. With CGAUAGCAAUAUUACGUCUA, the “self-splicing fitness (ln)” value was -1.89 ± 0.13 (30 °C) and -0.377 ± 0.11 (37 °C).

On to UCCUAGCAAUAUUACGUAAC, for which the “self-splicing fitness (ln)” value (30 °C) was -3.53 ± 0.24 and the “self-splicing fitness (ln)” value (37 °C) is -2.07 ± 0.27. As to AACGAGCAAUAUUACGUGUG, the “self-splicing fitness (ln)” value is -3.18 ± 0.13 (30 °C) and -2.57 ± 0.14 (37 °C). On to CAAUAGCAAUAUUACGAUAU, for which the “self-splicing fitness (ln)” value is -4.72 ± 0.34 (30 °C) and -2.59 ± 0.22 (37 °C). UAUAAGCAAUAUUACGUAGG: the “self-splicing fitness (ln)” value is -3 ± 0.27 (30 °C) and -0.609 ± 0.27 (37 °C).

Regarding GACGAGCAAUAUUACGAUAA, the “self-splicing fitness (ln)” value (37 °C) was -2.09 ± 0.43.

On to GCGUAGCAAUAUUACGGGGA, for which the “self-splicing fitness (ln)” value was -2.23 ± 0.32 (30 °C) and -2.89 ± 0.35 (37 °C). Turning to GAUCAGCAAUAUUACGGAAU, the “self-splicing fitness (ln)” value runs as follows: (30 °C) -1.27 ± 0.065; (37 °C) -0.181 ± 0.087. The matching figures for CAAAAGCAAUAUUACGUGGC: -3.26 ± 0.13 and -2.6 ± 0.2. The like results for CUUUAGCAAUAUUACGAUAC were, in that order, -3.4 ± 0.39 and -2.42 ± 0.45. The matching figures for ACGUAGCAAUAUUACGACUC: -0.301 ± 0.26 and -0.584 ± 0.27. In the case of UGGAAGCAAUAUUACGGUCG, the “self-splicing fitness (ln)” value runs as follows: (30 °C) -0.0238 ± 0.081; (37 °C) 0.332 ± 0.11. As for UAGUAGCAAUAUUACGAACC, the “self-splicing fitness (ln)” value (37 °C) was -2.97 ± 0.33.

Take UGACAGCAAUAUUACGUCUG: the “self-splicing fitness (ln)” value reads like this: (30 °C) -0.69 ± 0.072; (37 °C) -0.119 ± 0.093.

Turning to CCGAAGCAAUAUUACGGUCG, the “self-splicing fitness (ln)” value reads like this: (30 °C) -0.661 ± 0.11; (37 °C) -0.369 ± 0.14. As for CGGGAGCAAUAUUACGUGGG, the “self-splicing fitness (ln)” value (30 °C) is -2.97 ± 0.35.

Turning to UGUGAGCAAUAUUACGGUAA, the “self-splicing fitness (ln)” value by setting is: (30 °C) -2.56 ± 0.31; (37 °C) -2.25 ± 0.3. For the sequence UUCUAGCAAUAUUACGCUCU, the “self-splicing fitness (ln)” value is, setting by setting: (30 °C) -1.9 ± 0.15; (37 °C) -1.77 ± 0.15. Turning to GCACAGCAAUAUUACGGCGC, the “self-splicing fitness (ln)” value runs as follows: (30 °C) -1.54 ± 0.1; (37 °C) -0.777 ± 0.12. The like results for CGAAAGCAAUAUUACGCUGU were, in that order, -3.2 ± 0.25 and -2.75 ± 0.33. The matching figures for ACCUAGCAAUAUUACGAUCG: -1.19 ± 0.083 and -0.6 ± 0.1.

Regarding CACAAGCAAUAUUACGCUUA, the “self-splicing fitness (ln)” value is, setting by setting: (30 °C) -2.27 ± 0.13; (37 °C) -2.15 ± 0.13. The matching figures for UAUAAGCAAUAUUACGAACU: -1.94 ± 0.28 and 0.235 ± 0.24. The like results for AGAGAGCAAUAUUACGAAUG were, in that order, -2.07 ± 0.22 and -3.27 ± 0.47.

Take CUAUAGCAAUAUUACGCUUU: the “self-splicing fitness (ln)” value was -4.86 ± 0.45 (30 °C) and -3.17 ± 0.28 (37 °C).

Consider CGAGAGCAAUAUUACGAGUU, for which the “self-splicing fitness (ln)” value (30 °C) is -3.56 ± 0.34 and the “self-splicing fitness (ln)” value (37 °C) was -2.18 ± 0.34. As to GCCUAGCAAUAUUACGUUAC, the “self-splicing fitness (ln)” value is, setting by setting: (30 °C) -2.72 ± 0.2; (37 °C) -1.49 ± 0.18. As to AGAAAGCAAUAUUACGGACU, the “self-splicing fitness (ln)” value (30 °C) is -0.691 ± 0.079 and the “self-splicing fitness (ln)” value (37 °C) was 0.112 ± 0.089. The matching figures for AGCAAGCAAUAUUACGGGAA: -2.65 ± 0.14 and -1.03 ± 0.1.

Turning to CCUGAGCAAUAUUACGAUGU, the “self-splicing fitness (ln)” value is -1.94 ± 0.084 (30 °C) and -1.71 ± 0.098 (37 °C).

Take CCGUAGCAAUAUUACGAGCC: for the setting “37 °C”, the “self-splicing fitness (ln)” value is -1.01 ± 0.42. Regarding AGUCAGCAAUAUUACGAAGG, the “self-splicing fitness (ln)” value runs as follows: (30 °C) -1.27 ± 0.08; (37 °C) -1.46 ± 0.12.

For AAGCAGCAAUAUUACGUAGG, the “self-splicing fitness (ln)” value runs as follows: (30 °C) -2.79 ± 0.096; (37 °C) -1.96 ± 0.13. The like results for ACUCAGCAAUAUUACGUGAA were, in that order, -1.27 ± 0.053 and 0.294 ± 0.086. The matching figures for UAUCAGCAAUAUUACGACCG: -0.12 ± 0.081 and 0.738 ± 0.11. UUAAAGCAAUAUUACGGCUU: the “self-splicing fitness (ln)” value by setting is: (30 °C) -1.44 ± 0.082; (37 °C) -0.99 ± 0.11. The matching figures for CCCAAGCAAUAUUACGCCCG: -2.76 ± 0.33 and -2.44 ± 0.42. In the case of AACCAGCAAUAUUACGAAAA, the “self-splicing fitness (ln)” value reads like this: (30 °C) -1.54 ± 0.099; (37 °C) -1.3 ± 0.1. The matching figures for UGUCAGCAAUAUUACGUUAG: -1.07 ± 0.067 and -0.704 ± 0.065.

For AGUAAGCAAUAUUACGCAAU, the “self-splicing fitness (ln)” value was -2.52 ± 0.14 (30 °C) and -1.17 ± 0.16 (37 °C). Consider GUACAGCAAUAUUACGGUUG, for which the “self-splicing fitness (ln)” value by setting is: (30 °C) -3.9 ± 0.23; (37 °C) -1.86 ± 0.2. As to UCCGAGCAAUAUUACGGAUA, the “self-splicing fitness (ln)” value (30 °C) was -2.34 ± 0.25 and the “self-splicing fitness (ln)” value (37 °C) was -2.61 ± 0.19. The like results for UUGCAGCAAUAUUACGUGAG were, in that order, -0.139 ± 0.078 and -0.302 ± 0.099. Turning to AUCUAGCAAUAUUACGAACU, the “self-splicing fitness (ln)” value runs as follows: (30 °C) -0.13 ± 0.12; (37 °C) 0.27 ± 0.12. As to UGGUAGCAAUAUUACGAUCA, the “self-splicing fitness (ln)” value runs as follows: (30 °C) -0.00935 ± 0.1; (37 °C) 0.325 ± 0.13. With UCGGAGCAAUAUUACGUUUC, the “self-splicing fitness (ln)” value (37 °C) was -2.02 ± 0.43. As for ACUUAGCAAUAUUACGAUCU, the “self-splicing fitness (ln)” value (30 °C) was -0.0945 ± 0.076 and the “self-splicing fitness (ln)” value (37 °C) amounted to 0.51 ± 0.1. Consider CGCUAGCAAUAUUACGGCAC, for which the “self-splicing fitness (ln)” value was -1.9 ± 0.18 (30 °C) and 0.16 ± 0.19 (37 °C). In the case of GCACAGCAAUAUUACGGUCC, the “self-splicing fitness (ln)” value (30 °C) was -0.798 ± 0.062 and the “self-splicing fitness (ln)” value (37 °C) came out at 0.0593 ± 0.082.

Consider ACUAAGCAAUAUUACGUGAU, for which the “self-splicing fitness (ln)” value was -1.65 ± 0.062 (30 °C) and -1.21 ± 0.077 (37 °C).

For AGCUAGCAAUAUUACGUUUG, the “self-splicing fitness (ln)” value runs as follows: (30 °C) -4.09 ± 0.24; (37 °C) -0.747 ± 0.15. On to CCGCAGCAAUAUUACGGCUC, for which the “self-splicing fitness (ln)” value was -4.29 ± 0.21 (30 °C) and -1.34 ± 0.12 (37 °C). The like results for GGGUAGCAAUAUUACGGAAA were, in that order, -1.82 ± 0.34 and 0.517 ± 0.27. The like results for GUCGAGCAAUAUUACGUGAU were, in that order, -2.2 ± 0.15 and -2.11 ± 0.18. As to AGCAAGCAAUAUUACGGAGC, the “self-splicing fitness (ln)” value was -2.67 ± 0.19 (30 °C) and -1.31 ± 0.24 (37 °C). The matching figures for GCGUAGCAAUAUUACGGCGG: -2.79 ± 0.19 and -1.36 ± 0.23. The matching figures for GCCUAGCAAUAUUACGCACC: -0.962 ± 0.26 and -0.41 ± 0.21. The like results for GAAUAGCAAUAUUACGACCA were, in that order, -0.287 ± 0.13 and -0.616 ± 0.13. For the sequence UGAAAGCAAUAUUACGGGAU, the “self-splicing fitness (ln)” value reads like this: (30 °C) -2.6 ± 0.18; (37 °C) -3.48 ± 0.39. The matching figures for UAGCAGCAAUAUUACGCGUG: -1.5 ± 0.076 and -0.257 ± 0.1. In the case of UAUCAGCAAUAUUACGACAC, the “self-splicing fitness (ln)” value (30 °C) is -2.03 ± 0.2 and the “self-splicing fitness (ln)” value (37 °C) was 0.634 ± 0.23. The like results for CACCAGCAAUAUUACGUUCG were, in that order, -0.281 ± 0.049 and -0.196 ± 0.062. Consider UCCUAGCAAUAUUACGCAUG, for which the “self-splicing fitness (ln)” value (30 °C) was -2.52 ± 0.28. With GCCGAGCAAUAUUACGUACU, the “self-splicing fitness (ln)” value was -2.15 ± 0.17 (30 °C) and -1.23 ± 0.18 (37 °C).
